Test results taken from patent publication US20240043859A1, “HERBICIDE-RESISTANT PROTEIN, AND GENE AND USE THEREOF” (QINGDAO KINGAGROOT CHEMICAL COMPOUND CO., LTD., priority 2020, published 2024).
“Also recorded” adds a separate entry of the source.

B1: QYD76: AAD-like enzyme, SEQ ID NO. 151 (protein)
chain: MARMFDIAPLDATFGAVVTGVKVTRIDDATWRDLHAAWLEYALLIFPGQFLSRAEQIAFAKRFGPLEFEMAPISNVKADGTIRIEADNDDVVKVLKGNMGWHADSTYMPVQAKGAVFSAEVVPGEGGRTGWADMRAAYDALDAARRVRVESLTAYHSLYYSQAKLGHQPKRGSDYSGYGFHDGPVPRRPLVKVHPETGRKSLLIGRHAHNIPGMDVAESTQFLESLVDFACQPPRIYHHQWTAGDAVVWDNRCLLHRATPWDMTKPRVMWHSRIAGDPVSEASLG
modifications: Synthetic polypeptide, QYD76, D76
B2: QYD74: AAD-like enzyme, SEQ ID NO. 147 (protein)
chain: MARAFDIEPLDATFGAIITGVKLAALDDAVWRDLYAAWLEYALLIFPSQNLGRDEQIAFAKRFGALEFELAPISNVNSDGTLITDPDNDILKVLKGNMGWHSDSTYMPIQAKGAVFSARVVPKSGGSTGWADMRAAYDALDDNLKRKVERLAAHHSLRYSQAKLGHFPKKHSAYSGYGFHDGPEPLRPLVKTHPETGRKSLLIGRHAHNIPGMSAEESERFLQELVDFACRPPRVYHHEWTAGDVAVWDNRCLLHQATPWDMSEPRVMWHSRIAGDPTTESALA
modifications: Synthetic polypeptide, QYD74, D74
B3: QYD50: AAD-like enzyme, SEQ ID NO. 99 (protein)
chain: MEEPDMARTLGIEPLAGTTFGAVVKGVKVTALDDATWRELHAAWLQYALLIFPDQHLKRAEQIAFARRFGPLEFEMAAISNVKADGSLRIEADNDDVMKILKGNMGWHCDSTYMPVQAKGAVFSAEVVPSIGGRTGFADMRAAWDALDDALKARIETLSAYHSLHHSQSKLGHQTNKRDGEYSGYGLHDGPVPLRQLVKVHPETGRKSLLIGRHAHNIPGMDKADSERLLQELVDFACQPPRIYHHDWAAGDAVVWDNRCLLHQATPWDMTQPRVMWHSRIAGDPRSEAALGGSAVSAAASG
modifications: Synthetic polypeptide, QYD50, D50
B4: QYD72: AAD-like enzyme, SEQ ID NO. 143 (protein)
chain: MAADAPFVVKPLPASFGAVVTGLALADLDEAAFAALYRTWLDYALLIFPGQHLDRDQQIAFARRFGPLEFDIAPISNVRSDGSVRPDDDADDVVKVLKGNMGWHCDSTYMPVQAKGAVFTAHVVPEDGGETDWADMRAAYDALDPAMRRRIEGLSAYHSLRHSQGKLGHVHKPGSAYSGYGMTVEAPPLRPLVKVHPETSRKTLMVGRHAYGIPGFEDAESERLLDELADFACRPPRTWRHSWTPGDAVIWDNRALMHRACPWDMTRPRVMYHSRLAGDPVAEFAAPA
modifications: Synthetic polypeptide, QYD72, D72
B5: QYD34: AAD-like enzyme, SEQ ID NO. 67 (protein)
chain: MSMQVIPLDATFGATVTGLKLSELDEAVFAEIYDHWLRYSLLVFPGQNLDNEQQVTFAKRFGALEIDLVELSNVKDDGSLRTAPDDDRIKILKGNMGWHHDSTYMPVQAKGAVFRADTVPSHGGETGWADMCAAYDALGDAMRNRIEGLSAHHSLTYSQGKAGFKHKDKDSEYNGYGLDQDGAPLRPLVKTHAETGRKTLTIGRHAHAVPGLSQADSEALLTELVDFACQPPRIYHHGWQPGDVVVWDNRCLMHQACPWDMAERRVMFHSRLAGDPEHEFAAPN
modifications: Synthetic polypeptide, QYD34, D34
B6: QYD73: AAD-like enzyme, SEQ ID NO. 145 (protein)
chain: MARTFDVQPLDATFGAVISGVKLAALDDETWRELYATWLQYALLVFPGQHLSRDQQIAFARRFGPLEFEIIALSNVKSDGTIRSEVENDDVIKVLKGNMGWHADSTYMPVQAKGAVFTAEVVPSVGGQTGWADMRAAYDALDGATRQKVEQLSAYHSLHYSQSKLGHQHKPGSAYSGYGFHDGPVPLRPLVKTHPETGRKSLLIGRHAHNIPGMDKDESARFLEDLVASACQPPRIYHHTWAAGDAVVWDNRCLLHQATPWDMTQPRVMWHSRIAGDPLSEAALG
modifications: Synthetic polypeptide, QYD73, D73

Columns and labels:
[1] = Chromogenic reaction of degrading herbicides in bacteria: triclopyr; format: cell-based, Escherichia coli; settings: recombinant E. coli expressing the gene
Protocol: (§1) To transform the plasmids to be tested, an AAD12-expressing plasmid and a blank control plasmid pET15b were respectively transformed into the protein expression E. coli BL21(DE3) strains. A monoclone was selected and inoculated in a 10 ml centrifuge tube with 3 ml LB medium, and cultivated at 37° C., 200 rpm for 6-8 hours. […] The temperature was switched to 28° C. and the cultivation continued overnight. In the next morning, 200 μL of each bacteria solution was taken and centrifuged to precipitate thallus, 180 μL of the supernatant was taken and added in a 96-well plate, and 20 μL of borate buffer of pH 10 was added. Then the mixture was added with 2 μL of 8% potassium ferricyanide and mixed well, followed by adding 2 μL of 2% 4-aminoantipyrine, and placed at room temperature for 5 min to observe the color and detect the A510 value. […]

[2] = Chromogenic reaction of degrading herbicides in bacteria: 2,4-D; format: cell-based, Escherichia coli; settings: recombinant E. coli expressing the gene, 2,4-D added to the medium, red = phenols
Summary of the method: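 Colour from 2,4-D degradation was detected at A510 after 5 min at room temperature, with 4-aminoantipyrine and ferricyanide added to culture supernatant in pH 10 borate. Cultures were AAD12-expressing or empty-vector (pET15b) BL21(DE3), grown overnight at 28 °C with 0.5 mM 2,4-D, 0.1 mM IPTG and 2 mM α-ketoglutarate.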

[3] = format: cell-based, Escherichia coli
Protocol: as §1

[4] = test system: Arabidopsis thaliana; experiment: Herbicide resistance of transgenic Arabidopsis thaliana seedlings on plate medium (root growth); format: in vivo; settings: Arabidopsis overexpressing the gene
Protocol: Expression in Arabidopsis thaliana was regulated by its AtUbi10 Arabidopsis thaliana ubiquitin promoter and the MAS (mannopine synthase) terminator. Hygromycin resistance gene (HygR=hpt) served as the selection marker.
Preparation of Agrobacterium infection solution: An activated Agrobacterium (GV3101) monoclone was picked and inoculated in 30 ml YEP liquid medium [yeast powder 10 g/L, tryptone 10 g/L, NaCl 5 g/L, 25 mg/L Rifampicin and 50 mg/L Kanamycin], shaking-cultured at 200 rmp/min, 28° C. overnight until the OD600 was about 1.0-1.5, then centrifuged at 6000 rmp/min for 10 min to collect the bacteria, and the supernatant was discarded. Arabidopsis thaliana infection solution (sucrose 50 g/L, Silwet L-77 300 μL/L, no need to adjust pH) was used to resuspend the cells to OD600=0.8 for later use.
Genetic transformation of Arabidopsis thaliana by flower dipping: Before transformation of Arabidopsis thaliana plants, attentions were paid to whether the plants were growing well, the inflorescences were abundant, and no stress response occurred. The first transformation was performed when plants were about 20 cm high. Plants could be properly watered if the soil was dry. The grown siliques were cut off with scissors the day before transformation. The inflorescences of the plants to be transformed were soaked in the above-mentioned Agrobacterium solution for 30 seconds to 1 minute, which was stirred gently during the period. And a layer of liquid film should appear on the infiltrated plant. The transformed plants were cultured in a dark environment for 24 hours, and then taken out and grown in a normal light environment. A second transformation could be performed in the same way a week later.
Seeds were treated with disinfectant for 5 min, washed with sterile water for 5 times and then one part was spread on MS transgenic screening medium (containing 30 μg/mL hygromycin, 100 μg/mL carbenicillin) to screen transgenic seedlings, and the other part was spread on MS medicated medium [containing 250 μg/mL Cefotaxime sodium and 0.3 μM 2,4-D] to screen herbicide-resistant seedlings at mean time. The petri dish spread with seeds was placed at 4° C. for vernalization for 3 days, and taken out to a illumination incubator for cultivation (temperature of 22° C., 16 hours of light, 8 hours of darkness, light intensity of 100-150 μmol/m^2/s, humidity of 75%). After one week, it was observed that the roots of the wild-type control seedlings were not elongated and their growth was inhibited, while the transgenic seedlings had normal root growth, showing drug resistance. The transgenic positive seedlings and herbicide-resistant seedlings were photographed and transplanted into small pots filled with soil for cultivation.
The transgenic lines with the nine vectors, pQY2309, pQY2310, pQY2311, pQY2312, pQY2313, pQY2314, pQY2315, pQY2316 and pQY2317, overexpressing AAD gene in the T2 generation were further tested on plate medium for their resistance to 2,4-D, 2,4-DB sodium and MCPA herbicide. Two events were tested for each transformant.

Row | Molecule | Chromogenic reaction of degrading herbicides in bacteria: Triclopyr [1] | Chromogenic reaction of degrading herbicides in bacteria: 2,4-D [2] | Chromogenic reaction of degrading herbicides in bacteria: MCPA [3] | Resistance of transgenic Arabidopsis thaliana: 2,4-D [4] | other results
1 | B1 | Yes | Yes | Yes |  | Chromogenic reaction of degrading herbicides in bacteria: Triclopyr ([1]; listed as D76): slight degradation; Chromogenic reaction of degrading herbicides in bacteria: 2,4-D ([2]; listed as D76): could degrade 2,4-D; also recorded: capable of degrading 2,4-D
2 | B2 | Yes | Yes | Yes |  | Chromogenic reaction of degrading herbicides in bacteria: Triclopyr ([1]; listed as D74): slight degradation; Chromogenic reaction of degrading herbicides in bacteria: 2,4-D ([2]; listed as D74): could degrade 2,4-D; also recorded: capable of degrading 2,4-D
3 | B3 |  | Yes | Yes | Yes | Resistance of transgenic Arabidopsis thaliana: MCPA [4]: Yes; Chromogenic reaction of degrading herbicides in bacteria: 2,4-D ([2]; listed as D50): could degrade 2,4-D; also recorded: capable of degrading 2,4-D
4 | B4 | Yes | Yes | Yes |  | Chromogenic reaction of degrading herbicides in bacteria: Triclopyr ([1]; listed as D72): slight degradation; Chromogenic reaction of degrading herbicides in bacteria: 2,4-D ([2]; listed as D72): could degrade 2,4-D; also recorded: capable of degrading 2,4-D
5 | B5 |  | Yes | NO | Yes | Chromogenic reaction of degrading herbicides in bacteria: 2,4-D ([2]; listed as D34): red reactions
6 | B6 | Yes | Yes | Yes |  | Chromogenic reaction of degrading herbicides in bacteria: Triclopyr ([1]; listed as D73): slight degradation; Chromogenic reaction of degrading herbicides in bacteria: 2,4-D ([2]; listed as D73): could degrade 2,4-D; also recorded: capable of degrading 2,4-D
